In one series the target is MERTK (UniProt Q12866). The series can be described thus: phosphorylation enrichment, bacterial display (enrichment ratio); higher = better substrate or ligand; peptides without Tyr show the background.
The next series addresses Fes (UniProt P07332). The description is as above.
Another series has as its target Hck (UniProt P08631). The description is as above.
The next series addresses Jak2 (UniProt O60674). Described as above.
A further series deals with AncSZ. Described as above.
The next series concerns c-Src. The series is described as above.
For the next series, the target named is Fyn (UniProt P06241). The series is described as above.
A further series deals with EPHB2 (UniProt P29323). The series is described as above.
In a further series the target is FGFR1 (UniProt P11362). The series is described as above.
The test system of a further series is Fer (mouse). Described as above.
For another series, the target named is EPHB1 (UniProt P54762). The series is described as above.
The next series deals with FGFR3 (UniProt P22607). The description is as above.
A further series has as its system c-Abl (mouse). The description is as above.
In a further series the target is SHP2-C SH2. The series can be described thus: SH2 binding enrichment of the phosphorylated peptide, bacterial display (enrichment ratio); higher = better substrate or ligand; peptides without Tyr show the background.
The target of another series is c-Src SH2. Described as above.
In a further series the target is Grb2 SH2 (UniProt P62993). The series is described as above.
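Throughout, for SH2 binding enrichment of the phosphorylated peptide, bacterial display: peptide library displayed on the E. coli surface as eCPX fusions, selected cells deep-sequenced, score is each peptide's frequency after selection divided by its frequency in the input.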
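Throughout, for phosphorylation enrichment, bacterial display: 11-residue human phosphosite peptides and single-mutation variants displayed on the E. coli surface, counted by deep sequencing, each peptide's frequency after selection divided by its frequency in the unselected input library; frequency after pTyr selection over input frequency; kinase dosed for 20-30% of maximal phosphorylation in three min.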

Hck, sequence (P08631 whole entry, looked up): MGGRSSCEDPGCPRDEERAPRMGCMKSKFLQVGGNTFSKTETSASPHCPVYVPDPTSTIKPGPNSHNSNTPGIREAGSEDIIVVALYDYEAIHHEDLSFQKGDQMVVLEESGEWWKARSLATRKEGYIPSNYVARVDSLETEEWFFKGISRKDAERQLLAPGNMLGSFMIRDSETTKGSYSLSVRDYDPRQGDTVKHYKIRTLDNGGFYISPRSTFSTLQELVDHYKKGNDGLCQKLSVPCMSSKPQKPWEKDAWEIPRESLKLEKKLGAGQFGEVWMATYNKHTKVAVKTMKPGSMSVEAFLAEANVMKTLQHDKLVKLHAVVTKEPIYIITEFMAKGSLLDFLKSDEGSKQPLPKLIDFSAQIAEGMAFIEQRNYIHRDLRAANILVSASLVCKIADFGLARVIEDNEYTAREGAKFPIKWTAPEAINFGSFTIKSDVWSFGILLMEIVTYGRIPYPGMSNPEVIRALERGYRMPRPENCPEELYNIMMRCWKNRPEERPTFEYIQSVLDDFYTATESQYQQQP
FGFR1, sequence (P11362 whole entry, looked up): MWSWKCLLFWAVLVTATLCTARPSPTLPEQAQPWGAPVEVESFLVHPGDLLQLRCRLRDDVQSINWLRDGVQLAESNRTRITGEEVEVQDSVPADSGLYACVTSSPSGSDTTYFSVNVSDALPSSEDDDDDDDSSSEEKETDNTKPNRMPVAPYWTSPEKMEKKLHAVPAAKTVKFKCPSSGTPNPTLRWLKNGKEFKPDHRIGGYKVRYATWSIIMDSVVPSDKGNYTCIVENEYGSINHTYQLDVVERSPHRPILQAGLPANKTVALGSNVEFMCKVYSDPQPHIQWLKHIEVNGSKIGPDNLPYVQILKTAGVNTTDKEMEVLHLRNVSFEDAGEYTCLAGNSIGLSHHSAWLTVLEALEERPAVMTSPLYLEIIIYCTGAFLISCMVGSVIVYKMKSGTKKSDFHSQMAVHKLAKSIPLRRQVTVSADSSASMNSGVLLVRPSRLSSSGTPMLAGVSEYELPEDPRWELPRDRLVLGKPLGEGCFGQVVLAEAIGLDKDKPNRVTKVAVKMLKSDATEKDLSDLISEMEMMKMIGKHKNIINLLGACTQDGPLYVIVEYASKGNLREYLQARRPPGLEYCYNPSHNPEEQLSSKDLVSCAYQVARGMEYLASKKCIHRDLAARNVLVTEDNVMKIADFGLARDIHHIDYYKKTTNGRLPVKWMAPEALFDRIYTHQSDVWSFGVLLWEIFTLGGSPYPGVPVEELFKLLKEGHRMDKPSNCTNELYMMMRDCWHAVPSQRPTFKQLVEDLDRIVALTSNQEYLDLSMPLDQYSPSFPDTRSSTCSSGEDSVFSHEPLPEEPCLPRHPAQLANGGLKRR
FGFR3, sequence (P22607 whole entry, looked up): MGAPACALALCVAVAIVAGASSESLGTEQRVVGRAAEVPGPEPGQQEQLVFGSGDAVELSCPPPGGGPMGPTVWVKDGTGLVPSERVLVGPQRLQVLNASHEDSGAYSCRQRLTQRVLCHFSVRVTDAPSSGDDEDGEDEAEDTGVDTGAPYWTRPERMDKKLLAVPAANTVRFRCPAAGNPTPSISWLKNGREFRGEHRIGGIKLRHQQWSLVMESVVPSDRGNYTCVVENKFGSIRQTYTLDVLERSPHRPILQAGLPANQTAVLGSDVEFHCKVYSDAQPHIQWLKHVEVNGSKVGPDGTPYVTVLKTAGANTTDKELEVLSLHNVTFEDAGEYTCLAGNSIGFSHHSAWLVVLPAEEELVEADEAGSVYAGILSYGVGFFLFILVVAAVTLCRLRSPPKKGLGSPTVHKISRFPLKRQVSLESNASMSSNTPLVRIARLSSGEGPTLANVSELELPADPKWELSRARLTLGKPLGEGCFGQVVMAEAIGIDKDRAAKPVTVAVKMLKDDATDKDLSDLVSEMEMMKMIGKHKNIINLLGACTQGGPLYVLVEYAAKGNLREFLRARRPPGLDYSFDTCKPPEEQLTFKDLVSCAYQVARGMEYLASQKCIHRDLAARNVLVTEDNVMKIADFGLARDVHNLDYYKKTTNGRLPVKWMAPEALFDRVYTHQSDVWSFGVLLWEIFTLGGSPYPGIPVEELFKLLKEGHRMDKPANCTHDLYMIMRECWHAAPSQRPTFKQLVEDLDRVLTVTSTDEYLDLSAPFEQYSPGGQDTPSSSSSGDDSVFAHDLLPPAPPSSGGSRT
Fes, sequence (P07332 whole entry, looked up): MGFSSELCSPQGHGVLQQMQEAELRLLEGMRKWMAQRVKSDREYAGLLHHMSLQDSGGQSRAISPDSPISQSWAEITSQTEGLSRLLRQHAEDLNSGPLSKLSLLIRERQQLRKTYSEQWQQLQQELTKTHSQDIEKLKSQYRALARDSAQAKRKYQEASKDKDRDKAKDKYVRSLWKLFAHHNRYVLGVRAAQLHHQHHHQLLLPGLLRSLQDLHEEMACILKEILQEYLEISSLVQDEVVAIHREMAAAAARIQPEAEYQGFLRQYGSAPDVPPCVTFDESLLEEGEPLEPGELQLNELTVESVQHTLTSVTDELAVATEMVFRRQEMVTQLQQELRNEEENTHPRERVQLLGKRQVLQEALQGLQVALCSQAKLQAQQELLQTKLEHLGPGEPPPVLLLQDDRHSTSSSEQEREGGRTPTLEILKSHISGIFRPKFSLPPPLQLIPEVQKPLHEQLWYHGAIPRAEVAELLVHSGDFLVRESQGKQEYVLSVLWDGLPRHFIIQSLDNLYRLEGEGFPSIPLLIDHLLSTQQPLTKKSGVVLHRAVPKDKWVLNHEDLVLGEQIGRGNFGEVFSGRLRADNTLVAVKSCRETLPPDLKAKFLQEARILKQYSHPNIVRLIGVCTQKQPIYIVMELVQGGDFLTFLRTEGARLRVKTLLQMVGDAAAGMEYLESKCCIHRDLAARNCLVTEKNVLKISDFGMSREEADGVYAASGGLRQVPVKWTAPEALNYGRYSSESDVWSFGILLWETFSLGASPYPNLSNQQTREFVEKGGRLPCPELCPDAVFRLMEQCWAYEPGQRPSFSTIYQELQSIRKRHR
MERTK, sequence (Q12866 whole entry, looked up): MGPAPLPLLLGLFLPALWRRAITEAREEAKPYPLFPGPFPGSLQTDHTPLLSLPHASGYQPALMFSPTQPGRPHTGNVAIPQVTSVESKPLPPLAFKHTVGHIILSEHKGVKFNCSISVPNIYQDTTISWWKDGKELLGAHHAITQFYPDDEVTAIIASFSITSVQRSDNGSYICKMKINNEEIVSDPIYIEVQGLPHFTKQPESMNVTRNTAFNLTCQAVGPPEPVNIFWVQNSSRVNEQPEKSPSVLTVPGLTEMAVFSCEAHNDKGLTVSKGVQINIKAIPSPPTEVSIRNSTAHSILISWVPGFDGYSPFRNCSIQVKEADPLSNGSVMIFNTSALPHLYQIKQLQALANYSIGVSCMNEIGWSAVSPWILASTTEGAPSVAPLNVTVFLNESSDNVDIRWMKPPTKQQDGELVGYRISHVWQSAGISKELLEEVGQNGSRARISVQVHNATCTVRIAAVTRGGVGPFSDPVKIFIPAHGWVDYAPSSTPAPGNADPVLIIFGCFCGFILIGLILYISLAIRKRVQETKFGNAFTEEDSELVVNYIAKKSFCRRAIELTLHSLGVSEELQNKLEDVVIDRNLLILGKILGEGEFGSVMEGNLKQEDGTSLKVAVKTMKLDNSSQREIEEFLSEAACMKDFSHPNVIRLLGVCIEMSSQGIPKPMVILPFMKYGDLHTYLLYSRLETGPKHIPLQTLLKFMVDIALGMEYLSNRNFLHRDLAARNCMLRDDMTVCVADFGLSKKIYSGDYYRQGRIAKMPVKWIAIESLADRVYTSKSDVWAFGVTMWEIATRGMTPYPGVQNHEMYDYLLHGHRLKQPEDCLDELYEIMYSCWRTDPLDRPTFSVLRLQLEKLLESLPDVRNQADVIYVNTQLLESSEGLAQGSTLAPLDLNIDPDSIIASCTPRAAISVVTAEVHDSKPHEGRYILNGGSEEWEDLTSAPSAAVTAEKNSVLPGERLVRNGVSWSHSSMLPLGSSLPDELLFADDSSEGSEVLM
Grb2 SH2, sequence (P62993 whole entry, looked up, the tested form may be a part): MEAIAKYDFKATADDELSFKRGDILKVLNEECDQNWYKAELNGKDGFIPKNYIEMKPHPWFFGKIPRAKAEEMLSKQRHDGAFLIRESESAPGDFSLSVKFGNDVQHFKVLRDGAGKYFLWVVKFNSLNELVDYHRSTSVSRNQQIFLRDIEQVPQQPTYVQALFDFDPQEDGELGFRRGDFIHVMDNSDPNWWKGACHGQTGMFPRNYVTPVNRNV
Fyn, sequence (P06241 whole entry, looked up): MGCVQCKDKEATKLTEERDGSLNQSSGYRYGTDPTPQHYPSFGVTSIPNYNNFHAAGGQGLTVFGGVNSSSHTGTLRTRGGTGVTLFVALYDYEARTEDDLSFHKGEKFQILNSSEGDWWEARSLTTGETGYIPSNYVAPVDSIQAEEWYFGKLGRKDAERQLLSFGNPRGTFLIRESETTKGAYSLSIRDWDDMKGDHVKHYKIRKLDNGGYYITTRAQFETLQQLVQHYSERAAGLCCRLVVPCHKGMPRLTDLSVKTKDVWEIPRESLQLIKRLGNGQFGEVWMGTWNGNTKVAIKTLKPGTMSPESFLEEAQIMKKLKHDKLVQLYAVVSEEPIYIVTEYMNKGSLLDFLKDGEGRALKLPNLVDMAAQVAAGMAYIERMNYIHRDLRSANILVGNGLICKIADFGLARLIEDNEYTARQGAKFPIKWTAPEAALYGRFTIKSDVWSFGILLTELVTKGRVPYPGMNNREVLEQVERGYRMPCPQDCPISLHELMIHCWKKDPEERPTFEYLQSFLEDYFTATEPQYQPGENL

In the case of YYHCTYKQRMI [CLEC12A_Y242_K244Q], the phosphorylation enrichment in the series with MERTK stood at 3.68; with Fes, 1.01; in the series with Hck, 1.1; with Jak2, 1.73; with AncSZ it was 1.64; with c-Src it was 0.773. Also, the phosphorylation enrichment in the series with Fyn was found to be 0.693; with EPHB2, 0.527; with FGFR1, 9.07; with Fer (mouse), 0.452; in the series with EPHB1 it was 0.63; in the series with FGFR3, 7.01. The phosphorylation enrichment with c-Abl (mouse) came to 1.4. In addition, the values for the SH2 binding enrichment in the series with SHP2-C SH2, in the series with c-Src SH2 and in the series with Grb2 SH2 were 0.953, 1.41 and 1.41, respectively.

For the origin of these results see the supplement of paper PMC10065799, “High-throughput profiling of sequence recognition by tyrosine kinases and SH2 domains using bacterial peptide display” (eLife, 2023).
